# From the Immune Epitope Database (IEDB)
# Tests used:
# HLA-B*18:01 [1] = assay: IEDB peptide-MHC binding, purified MHC/direct/fluorescence; filed as Kd, often an IC50 or EC50 that approximates it; ≥ and ≤ were set here for values at or beyond the usual limits of such assays; details: source organism: Influenza A virus (A/Wisconsin/4755/1994(H1N1))
# HLA-A*02:01 [2] = assay: as above; details: source organism: Influenza A virus (A/Wisconsin/4755/1994(H1N1))
# HLA-A*01:01 = assay: as above; details: source organism: Influenza A virus (A/Wisconsin/4755/1994(H1N1))
# HLA-A*68:02 = assay: as above
# HLA-B*46:01 [3] = assay: as above; details: source organism: Influenza A virus (A/Wisconsin/4755/1994(H1N1))
# HLA-B*07:02 = assay: as above
# HLA-B*57:01 [4] = assay: as above; details: source organism: Influenza A virus (A/Wisconsin/4755/1994(H1N1))
# HLA-A*26:01 [5] = assay: as above; details: source organism: Influenza A virus H3N2
# HLA-B*15:01 [6] = assay: as above
# HLA-A*11:01 = assay: as above; details: source organism: Influenza A virus (A/Wisconsin/4755/1994(H1N1))
# HLA-A*03:01 = assay: as above
# HLA-B*15:17 [7] = assay: as above; details: source organism: Influenza A virus (A/Wisconsin/4755/1994(H1N1))
# HLA-A*31:01 = assay: as above; details: source organism: Influenza A virus (A/Wisconsin/4755/1994(H1N1))
# HLA-A*69:01 [8] = assay: as above; details: source organism: Influenza A virus (A/Wisconsin/4755/1994(H1N1))
# HLA-B*40:01 = assay: as above; details: source organism: Influenza A virus (A/Wisconsin/4755/1994(H1N1))
# HLA-B*48:01 = assay: as above; details: source organism: Influenza A virus (A/Wisconsin/4755/1994(H1N1))
# HLA-B*08:01 = assay: as above; details: source organism: Influenza A virus (A/seal/Mass/1/1980(H7N7))
# HLA-A*26:02 = assay: as above; details: source organism: Influenza A virus H3N2
# HLA-B*27:05 = assay: as above; details: source organism: Influenza A virus (A/Wisconsin/4755/1994(H1N1))
# HLA-B*58:01 = assay: as above; details: source organism: Influenza A virus (A/Wisconsin/4755/1994(H1N1))
# HLA-B*27:03 = assay: IEDB peptide-MHC binding, purified MHC/competitive/fluorescence; filed as Kd, often an IC50 or EC50 that approximates it; ≥ and ≤ were set here for values at or beyond the usual limits of such assays
# HLA-B*51:01 = assay: as above
# HLA-B*18:01 [9] = assay: as above
# HLA-A*02:01 [10] = assay: as above
# HLA-B*39:01 = assay: as above
# HLA-B*46:01 [11] = assay: as above
# HLA-B*57:01 [12] = assay: as above
# HLA-A*26:01 [13] = assay: as above
# HLA-B*15:01 [14] = assay: as above
# HLA-B*15:17 [15] = assay: as above
# HLA-A*69:01 [16] = assay: as above
# HLA-A*02:16 = assay: IEDB peptide-MHC binding, purified MHC/direct/fluorescence; filed as Kd, often an IC50 or EC50 that approximates it; ≥ and ≤ were set here for values at or beyond the usual limits of such assays
# HLA-A*24:03 = assay: as above
# HLA-A*02:12 = assay: as above
# HLA-A*23:01 = assay: as above
# HLA-A*29:02 = assay: as above
# HLA-A*02:11 = assay: as above
# HLA-A*02:19 = assay: as above
# HLA-A*02:03 = assay: as above
# [17] = source organism: Influenza A virus (A/Wisconsin/4755/1994(H1N1))
# [18] = source organism: Reston ebolavirus
# [19] = source organism: Zaire ebolavirus
# [20] = source organism: Ravn virus - Ravn, Kenya, 1987
# [21] = source organism: Sudan ebolavirus - Maleo (1979)
sequence,measurement,setting,value
DPKKTGGPI,Kd,HLA-B*18:01 [1],≥ 20 µM
same,Kd,HLA-A*02:01 [2],≥ 20 µM
same,Kd,HLA-A*01:01,≥ 20 µM
same,Kd,HLA-A*68:02; [17],≥ 20 µM
same,Kd,HLA-B*46:01 [3],≥ 20 µM
same,Kd,HLA-B*07:02; source organism: Influenza A virus (A/seal/Mass/1/1980(H7N7)),0.0849 µM
same,Kd,HLA-B*57:01 [4],≥ 20 µM
same,Kd,HLA-A*26:01 [5],≥ 20 µM
same,Kd,HLA-B*15:01 [6]; [17],≥ 20 µM
same,Kd,HLA-A*11:01,≥ 20 µM
same,Kd,HLA-A*03:01; [17],≥ 20 µM
same,Kd,HLA-B*15:17 [7],≥ 20 µM
same,Kd,HLA-A*31:01,≥ 20 µM
same,Kd,HLA-A*69:01 [8],≥ 20 µM
same,Kd,HLA-B*40:01,≥ 20 µM
same,Kd,HLA-B*48:01,≥ 20 µM
same,Kd,HLA-B*08:01,≥ 20 µM
same,Kd,HLA-A*26:02,≥ 20 µM
same,Kd,HLA-B*27:05,≥ 20 µM
same,Kd,HLA-B*58:01,≥ 20 µM
LPRERFRKT,Kd,HLA-B*27:03; [18],≥ 20 µM
same,Kd,HLA-B*51:01; [18],≥ 20 µM
same,Kd,HLA-B*18:01 [9]; [18],≥ 20 µM
same,Kd,HLA-A*02:01 [10]; [18],≥ 20 µM
same,Kd,HLA-B*39:01; [18],≥ 20 µM
same,Kd,HLA-B*46:01 [11]; [18],≥ 20 µM
same,Kd,HLA-B*57:01 [12]; [18],≥ 20 µM
same,Kd,HLA-A*26:01 [13]; [18],≥ 20 µM
same,Kd,HLA-B*15:01 [14]; [18],≥ 20 µM
same,Kd,HLA-B*15:17 [15]; [18],≥ 20 µM
same,Kd,HLA-A*69:01 [16]; [18],≥ 20 µM
same,Kd,HLA-A*02:16; [18],≥ 20 µM
same,Kd,HLA-A*24:03; [18],≥ 20 µM
same,Kd,HLA-A*02:12; [18],≥ 20 µM
same,Kd,HLA-A*68:02; [18],≥ 20 µM
same,Kd,"HLA-B*07:02; source organism: Tai Forest virus - Cote d'Ivoire, Cote d'Ivoire, 1994",0.179 µM
same,Kd,HLA-A*23:01; [18],≥ 20 µM
same,Kd,HLA-A*29:02; [18],≥ 20 µM
same,Kd,HLA-A*03:01; [18],≥ 20 µM
same,Kd,HLA-A*02:11; [18],≥ 20 µM
same,Kd,HLA-A*02:19; [18],≥ 20 µM
same,Kd,HLA-A*02:03; [18],≥ 20 µM
PQVLGGLSF,Kd,HLA-B*27:03; [19],≥ 20 µM
same,Kd,HLA-B*51:01; [19],≥ 20 µM
same,Kd,HLA-B*18:01 [9]; [19],≥ 20 µM
same,Kd,HLA-A*02:01 [10]; [19],≥ 20 µM
same,Kd,HLA-B*39:01; [19],≥ 20 µM
same,Kd,HLA-B*46:01 [11]; [19],≥ 20 µM
same,Kd,HLA-B*57:01 [12]; [19],≥ 20 µM
same,Kd,HLA-A*26:01 [13]; [19],≥ 20 µM
same,Kd,HLA-B*15:17 [15]; [19],≥ 20 µM
same,Kd,HLA-A*69:01 [16]; [19],≥ 20 µM
same,Kd,HLA-A*02:16; [20],≥ 20 µM
same,Kd,HLA-A*24:03; [20],≥ 20 µM
same,Kd,HLA-A*02:12; [20],≥ 20 µM
same,Kd,HLA-A*68:02; [20],≥ 20 µM
same,Kd,HLA-A*23:01; [20],≥ 20 µM
same,Kd,HLA-B*15:01 [6]; [21],0.475 µM
same,Kd,HLA-A*03:01; [20],≥ 20 µM
same,Kd,HLA-A*02:11; [20],≥ 20 µM
same,Kd,HLA-A*02:19; [20],≥ 20 µM
same,Kd,HLA-A*02:03; [20],≥ 20 µM
TPSHYSGNI,Kd,HLA-B*27:03; [19],≥ 20 µM
same,Kd,HLA-B*51:01; [19],≥ 20 µM
same,Kd,HLA-B*18:01 [9]; [19],≥ 20 µM
same,Kd,HLA-A*02:01 [10]; [19],≥ 20 µM
same,Kd,HLA-B*39:01; [19],≥ 20 µM
same,Kd,HLA-B*46:01 [11]; [19],≥ 20 µM
same,Kd,HLA-B*57:01 [12]; [19],≥ 20 µM
same,Kd,HLA-A*26:01 [13]; [19],≥ 20 µM
same,Kd,HLA-B*15:01 [14]; [19],≥ 20 µM
same,Kd,HLA-B*15:17 [15]; [19],≥ 20 µM
same,Kd,HLA-A*69:01 [16]; [19],≥ 20 µM
same,Kd,HLA-A*02:16; [19],≥ 20 µM
same,Kd,HLA-A*24:03; [19],≥ 20 µM
same,Kd,HLA-A*02:12; [19],≥ 20 µM
same,Kd,HLA-A*68:02; [19],≥ 20 µM
same,Kd,HLA-B*07:02; [21],0.442 µM
same,Kd,HLA-A*23:01; [19],≥ 20 µM
same,Kd,HLA-A*29:02; [19],≥ 20 µM
same,Kd,HLA-A*03:01; [19],≥ 20 µM
same,Kd,HLA-A*02:11; [19],≥ 20 µM
same,Kd,HLA-A*02:19; [19],≥ 20 µM
same,Kd,HLA-A*02:03; [19],≥ 20 µM
